Test results as given in US20190183966A1.

Target: human FGF21 receptor (FGFR1) stably expressed on PathHunter U2OS cells (human) (UniProt P11362)
Experiment: cell-based or functional assay

Chain of human FGF21 receptor (FGFR1) stably expressed on PathHunter U2OS cells (human) (P11362 22-822): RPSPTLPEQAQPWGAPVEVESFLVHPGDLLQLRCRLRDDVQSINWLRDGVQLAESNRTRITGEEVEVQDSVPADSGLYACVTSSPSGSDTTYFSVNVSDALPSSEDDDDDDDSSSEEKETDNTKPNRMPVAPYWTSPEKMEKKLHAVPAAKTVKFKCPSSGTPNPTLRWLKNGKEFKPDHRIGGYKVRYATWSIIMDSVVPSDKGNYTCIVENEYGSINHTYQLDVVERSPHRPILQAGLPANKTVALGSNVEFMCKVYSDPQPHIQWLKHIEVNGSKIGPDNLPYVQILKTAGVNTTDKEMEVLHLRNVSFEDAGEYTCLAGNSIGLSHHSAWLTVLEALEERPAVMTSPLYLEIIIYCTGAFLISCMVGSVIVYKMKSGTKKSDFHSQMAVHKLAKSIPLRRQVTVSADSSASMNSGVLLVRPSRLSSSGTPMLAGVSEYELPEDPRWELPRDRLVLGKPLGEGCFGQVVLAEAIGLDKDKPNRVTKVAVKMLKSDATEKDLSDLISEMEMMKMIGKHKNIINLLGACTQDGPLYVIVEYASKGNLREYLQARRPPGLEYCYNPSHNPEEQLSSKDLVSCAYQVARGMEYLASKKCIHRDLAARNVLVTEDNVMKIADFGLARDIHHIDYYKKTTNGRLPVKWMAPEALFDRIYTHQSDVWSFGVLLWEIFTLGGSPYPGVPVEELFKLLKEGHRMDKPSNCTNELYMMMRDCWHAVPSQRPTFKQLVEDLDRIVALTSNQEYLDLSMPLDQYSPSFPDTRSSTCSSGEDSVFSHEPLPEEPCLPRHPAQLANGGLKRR

Substance	EC50, recruitment of the co-receptor beta-Klotho [µg/mL]
FGF21 protein with I3C substitution and His6 tag (from UniProt Q9NSA1 32-209) (ligand)	0.16
VitD-(3)-PEG2K-FGF21 (from UniProt Q9NSA1 32-209) (ligand)	0.4
VitD-(25)-PEG2K-FGF21 (from UniProt Q9NSA1 32-209) (ligand)	0.13
